Residue numbers refer to the chain shown, from its start. One block for each binder: values may come before it.
Assays:
[1] = molecular target: T1, integrin αvβ1 ectodomain (immobilized) (Homo sapiens (Human), UniProt P06756 31-992; P05556 21-728); experiment: binding to immobilized ectodomains
T1 construct: R&D Systems; copies: 1 + 1

[2] = molecular target: T2, integrin αvβ5 ectodomain (immobilized) (Homo sapiens (Human), UniProt P06756 31-992; P18084 24-719); experiment: binding to immobilized ectodomains
T2 construct: R&D Systems; copies: 1 + 1

[3] = molecular target: T3, integrin αvβ6 ectodomain (immobilized) (human, UniProt P06756 31-992; P18564 22-709); experiment: binding to immobilized αvβ6 ectodomain
T3 construct: extracellular domain; Bought from R&D Systems or made in ExpiCHO cells; also called immobilized human αvβ6

[4] = molecular target: T4, integrin αvβ3 on HEK 293 cells stably expressing αvβ3 (Homo sapiens (Human), UniProt P06756 31-1048; P05106 27-788); experiment: flow cytometry on HEK 293 cells stably expressing αvβ3
T4 construct: also called αvβ3 expressing 293 cells
Source text: (§1) A) Binding of anti-β3 (AP3) relative to F12 IgG4, H4C8 RGD1 IgG4,H4C8 RGD3 IgG4, H3C8 RGD3 with VL Fr4 V108/L109 (mouse) IgG4, H4C8 RGD3 IgG4, H3C8 RGD3 VL Fr4 K108/V109 (human) IgG4, H4C8 RGD1 VH Fr3 E72, H4C8 RGD3 VH Fr3 E72 IgG4. HEK 293 cells stably expressing αvβ3 were stained and the percentage of relative binding to the mean fluorescence intensity of AP3 is shown, B) Expi293 cells transiently expressing αvβ6 were stained and the percentage of relative binding to the mean fluorescence intensity of 3G9 is shown, C) HEK 293 cells stably expressing αvβ8 were stained and the percentage of relative binding to the mean fluorescence intensity of HuF12 is shown. All primary antibodies were used at 2.5 ug/ml. […] Binding or 3G9 is shown and percent binding of antibodies relative to 3G9 binding to αvβ6 is shown. Dotted line indicate binding observed with each positive control antibody,
(§2) RGD ligands bind promiscuously to a number of integrins. A highly desirable quality in RGD-mimetics is to retain specificity for some but not all integrins. One highly desirable property would be a dual inhibitor to both the αvβ8- and αvβ6-integrins, without cross-reactivity to other integrins. This property would facilitate specific targeting of integrin-mediated TGF-β activation without the liability of side-effects mediated by broadly blocking other integrins. We first measured binding to αvβ3 expressing 293 cells. Binding of anti-β3 (AP3) relative to F12 IgG4, H4C8 RGD1 IgG4,H4C8 RGD3 IgG4, H3C8 RGD3 with VL Fr4 V108/L109 (mouse) IgG4, H4C8 RGD3 IgG4, H3C8 RGD3 VI Fr4 K108/V109 (human) IgG4, H4C8 RGD1 Vh Fr3 E72, H4C8 RGD3 Vh Fr3 E72 IgG4. […] Expi293 cells transiently expressing αvβ6 were stained and the percentage of relative binding to the mean fluorescence intensity of anti-β6 (3G9) determined.

[5] = molecular target: T5, human integrin αvβ8 on transfected cells (CHO cells stably transfected; HEK 293 cells stably expressing αvβ8) (human, UniProt P06756 31-1048; P26012 43-769); experiment: flow cytometry on HEK 293 cells stably expressing αvβ8
T5 construct: whole, on cells; also called CHO αvβ8 cells; αvβ8 expressing CHO cells
Source text: as §1, with “FIG. 33 H4C8 RGD3 and H4C8 RGD1 show specificity for αvβ6 and αvβ8, VL Fr4 K108/V109 humanization improves or maintains binding, VH Fr4 Q72 improves binding over E72. A)” for “A)”, “antibody, […]” for “antibody,”

[6] = molecular target: T6, integrin αvβ6 on transfected cells (CHO cells; Expi293 cells transiently expressing αvβ6) (human, UniProt P06756 31-1048; P18564 22-788); experiment: flow cytometry on Expi293 cells transiently expressing αvβ6, antibody at 2.5 µg/ml
T6 construct: whole, on cells; Legend says 'CHO cells expressing human αvβ8 or αvβ6'; read as human; also called αvβ6 expressing CHO cells
Description: as §1, with “HEK” for “A) Binding of anti-β3 (AP3) relative to F12 IgG4, H4C8 RGD1 IgG4,H4C8 RGD3 IgG4, H3C8 RGD3 with VL Fr4 V108/L109 (mouse) IgG4, H4C8 RGD3 IgG4, H3C8 RGD3 VL Fr4 K108/V109 (human) IgG4, H4C8 RGD1 VH Fr3 E72, H4C8 RGD3 VH Fr3 E72 IgG4. HEK”
as §2, with “cells.” for “cells. Binding of anti-β3 (AP3) relative to F12 IgG4, H4C8 RGD1 IgG4,H4C8 RGD3 IgG4, H3C8 RGD3 with VL Fr4 V108/L109 (mouse) IgG4, H4C8 RGD3 IgG4, H3C8 RGD3 VI Fr4 K108/V109 (human) IgG4, H4C8 RGD1 Vh Fr3 E72, H4C8 RGD3 Vh Fr3 E72 IgG4.”, “determined. […]” for “determined.”

[7] = molecular target: T5, human integrin αvβ8 on transfected …; experiment: flow cytometry on HEK 293 cells stably expressing αvβ8, antibody at 2.5 µg/ml
Source text: as §1, with “FIG. 33 H4C8 RGD3 and H4C8 RGD1 show specificity for αvβ6 and αvβ8, VL Fr4 K108/V109 humanization improves or maintains binding, VH Fr4 Q72 improves binding over E72. A)” for “A)”, “antibody, […]” for “antibody,”

[8] = molecular target: recombinant human integrin αvβ8 ectodomain (human, UniProt P06756 31-992; P26012 43-681); experiment: cell-based or functional assay
[9] = molecular target: T3, integrin αvβ6 ectodomain (immobilized); experiment: binding to immobilized integrin ectodomains blocked with BSA
[10] = molecular target: T1, integrin αvβ1 ectodomain (immobilized); experiment: as above
[11] = molecular target: T2, integrin αvβ5 ectodomain (immobilized); experiment: as above
[12] = molecular target: T6, integrin αvβ6 on transfected cells (CHO …); experiment: flow cytometry on CHO cells expressing αvβ6, antibodies as IgG4

T4 sequence (P06756 31-1048 limits assumed, chain 1 of 2): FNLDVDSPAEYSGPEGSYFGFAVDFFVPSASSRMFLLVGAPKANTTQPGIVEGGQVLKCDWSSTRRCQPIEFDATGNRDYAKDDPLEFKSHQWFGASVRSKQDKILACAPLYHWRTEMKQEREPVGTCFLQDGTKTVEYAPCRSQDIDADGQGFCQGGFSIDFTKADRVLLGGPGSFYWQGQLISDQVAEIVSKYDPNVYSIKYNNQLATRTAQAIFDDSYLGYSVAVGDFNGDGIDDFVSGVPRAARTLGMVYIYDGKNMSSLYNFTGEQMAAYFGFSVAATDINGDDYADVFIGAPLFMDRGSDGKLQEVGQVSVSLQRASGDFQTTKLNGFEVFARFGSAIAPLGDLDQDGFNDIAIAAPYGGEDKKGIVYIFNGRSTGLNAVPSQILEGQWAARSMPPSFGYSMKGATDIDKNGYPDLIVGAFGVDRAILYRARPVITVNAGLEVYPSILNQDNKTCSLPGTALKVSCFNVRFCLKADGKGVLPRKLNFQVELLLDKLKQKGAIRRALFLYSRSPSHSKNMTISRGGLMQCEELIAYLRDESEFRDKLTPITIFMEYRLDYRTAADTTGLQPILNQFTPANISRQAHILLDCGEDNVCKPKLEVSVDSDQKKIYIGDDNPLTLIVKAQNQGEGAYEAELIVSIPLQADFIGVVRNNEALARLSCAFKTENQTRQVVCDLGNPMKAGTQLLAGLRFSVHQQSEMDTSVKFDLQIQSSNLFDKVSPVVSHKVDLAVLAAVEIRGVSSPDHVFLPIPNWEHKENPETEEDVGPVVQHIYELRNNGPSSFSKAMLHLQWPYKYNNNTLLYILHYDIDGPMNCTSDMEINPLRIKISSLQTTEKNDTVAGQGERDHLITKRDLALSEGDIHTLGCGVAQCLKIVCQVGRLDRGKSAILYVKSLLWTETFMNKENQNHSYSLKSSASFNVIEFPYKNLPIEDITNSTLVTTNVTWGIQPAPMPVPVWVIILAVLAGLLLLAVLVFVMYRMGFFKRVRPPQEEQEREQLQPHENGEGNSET
T4 sequence (P05106 27-788 limits assumed, chain 2 of 2): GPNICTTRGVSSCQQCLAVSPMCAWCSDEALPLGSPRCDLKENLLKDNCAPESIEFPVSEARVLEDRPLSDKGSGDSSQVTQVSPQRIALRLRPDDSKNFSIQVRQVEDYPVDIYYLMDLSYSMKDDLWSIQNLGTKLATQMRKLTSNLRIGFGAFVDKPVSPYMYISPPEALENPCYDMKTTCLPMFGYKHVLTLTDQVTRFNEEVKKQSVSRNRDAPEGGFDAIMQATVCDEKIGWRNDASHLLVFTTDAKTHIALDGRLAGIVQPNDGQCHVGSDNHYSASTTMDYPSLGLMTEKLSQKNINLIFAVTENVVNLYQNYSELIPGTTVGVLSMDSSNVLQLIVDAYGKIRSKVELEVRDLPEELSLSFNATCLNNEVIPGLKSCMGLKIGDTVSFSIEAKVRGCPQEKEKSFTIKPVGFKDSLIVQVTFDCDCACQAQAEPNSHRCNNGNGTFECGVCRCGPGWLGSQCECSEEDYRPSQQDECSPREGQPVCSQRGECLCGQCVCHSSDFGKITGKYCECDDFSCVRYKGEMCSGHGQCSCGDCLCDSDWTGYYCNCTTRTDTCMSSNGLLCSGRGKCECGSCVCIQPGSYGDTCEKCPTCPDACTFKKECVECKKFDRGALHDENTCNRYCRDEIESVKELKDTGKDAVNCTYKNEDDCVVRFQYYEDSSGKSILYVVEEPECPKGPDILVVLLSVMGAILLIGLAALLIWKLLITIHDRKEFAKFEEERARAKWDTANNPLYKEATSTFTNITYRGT
T6 sequence (P06756 31-1048, chain 1 of 2): as the sequence (P06756 31-1048 limits assumed, chain 1 of 2) above
T6 sequence (P18564 22-788, chain 2 of 2): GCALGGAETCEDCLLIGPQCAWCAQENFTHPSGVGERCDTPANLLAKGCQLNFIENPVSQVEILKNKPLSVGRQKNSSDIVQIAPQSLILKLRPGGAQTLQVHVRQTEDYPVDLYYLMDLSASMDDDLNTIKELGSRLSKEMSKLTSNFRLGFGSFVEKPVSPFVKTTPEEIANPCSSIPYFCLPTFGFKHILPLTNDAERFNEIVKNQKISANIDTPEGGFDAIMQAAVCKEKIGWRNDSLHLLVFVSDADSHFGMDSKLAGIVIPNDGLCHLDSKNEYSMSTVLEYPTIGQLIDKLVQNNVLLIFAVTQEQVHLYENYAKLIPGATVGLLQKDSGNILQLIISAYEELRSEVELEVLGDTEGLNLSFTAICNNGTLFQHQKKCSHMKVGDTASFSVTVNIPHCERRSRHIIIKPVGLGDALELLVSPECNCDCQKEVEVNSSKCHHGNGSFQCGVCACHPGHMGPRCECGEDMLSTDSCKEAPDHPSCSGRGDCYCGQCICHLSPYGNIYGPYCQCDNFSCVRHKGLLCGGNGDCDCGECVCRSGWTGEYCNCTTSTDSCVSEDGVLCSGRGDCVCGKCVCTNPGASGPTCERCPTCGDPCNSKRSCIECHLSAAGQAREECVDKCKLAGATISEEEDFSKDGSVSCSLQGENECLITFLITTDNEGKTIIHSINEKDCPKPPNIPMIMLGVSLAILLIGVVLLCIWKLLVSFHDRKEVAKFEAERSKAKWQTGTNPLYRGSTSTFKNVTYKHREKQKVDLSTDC
T3 sequence (P06756 31-992, chain 1 of 2): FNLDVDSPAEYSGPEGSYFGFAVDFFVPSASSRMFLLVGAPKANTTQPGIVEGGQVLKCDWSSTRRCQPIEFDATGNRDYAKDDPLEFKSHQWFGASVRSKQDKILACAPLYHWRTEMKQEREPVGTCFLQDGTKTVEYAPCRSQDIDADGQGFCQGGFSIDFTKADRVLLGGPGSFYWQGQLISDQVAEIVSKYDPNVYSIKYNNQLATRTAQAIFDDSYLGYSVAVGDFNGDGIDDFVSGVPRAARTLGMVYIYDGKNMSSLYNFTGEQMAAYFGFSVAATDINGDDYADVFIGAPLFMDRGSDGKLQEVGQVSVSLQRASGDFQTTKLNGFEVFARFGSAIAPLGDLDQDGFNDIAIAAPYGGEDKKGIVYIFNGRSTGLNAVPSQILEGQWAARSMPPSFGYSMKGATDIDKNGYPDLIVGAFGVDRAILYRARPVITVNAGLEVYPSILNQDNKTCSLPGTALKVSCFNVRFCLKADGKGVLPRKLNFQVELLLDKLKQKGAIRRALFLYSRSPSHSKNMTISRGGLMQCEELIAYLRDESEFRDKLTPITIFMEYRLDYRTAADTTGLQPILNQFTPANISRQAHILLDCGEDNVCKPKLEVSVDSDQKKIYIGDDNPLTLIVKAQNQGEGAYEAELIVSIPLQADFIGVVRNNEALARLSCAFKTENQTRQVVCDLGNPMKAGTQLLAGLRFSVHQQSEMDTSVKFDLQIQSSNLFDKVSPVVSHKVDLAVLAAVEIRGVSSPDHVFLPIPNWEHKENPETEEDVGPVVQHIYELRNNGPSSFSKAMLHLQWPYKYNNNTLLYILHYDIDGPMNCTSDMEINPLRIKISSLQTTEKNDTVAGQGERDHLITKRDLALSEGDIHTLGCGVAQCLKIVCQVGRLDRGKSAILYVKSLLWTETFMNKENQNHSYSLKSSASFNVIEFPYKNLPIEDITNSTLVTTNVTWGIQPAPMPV
T3 sequence (P18564 22-709, chain 2 of 2): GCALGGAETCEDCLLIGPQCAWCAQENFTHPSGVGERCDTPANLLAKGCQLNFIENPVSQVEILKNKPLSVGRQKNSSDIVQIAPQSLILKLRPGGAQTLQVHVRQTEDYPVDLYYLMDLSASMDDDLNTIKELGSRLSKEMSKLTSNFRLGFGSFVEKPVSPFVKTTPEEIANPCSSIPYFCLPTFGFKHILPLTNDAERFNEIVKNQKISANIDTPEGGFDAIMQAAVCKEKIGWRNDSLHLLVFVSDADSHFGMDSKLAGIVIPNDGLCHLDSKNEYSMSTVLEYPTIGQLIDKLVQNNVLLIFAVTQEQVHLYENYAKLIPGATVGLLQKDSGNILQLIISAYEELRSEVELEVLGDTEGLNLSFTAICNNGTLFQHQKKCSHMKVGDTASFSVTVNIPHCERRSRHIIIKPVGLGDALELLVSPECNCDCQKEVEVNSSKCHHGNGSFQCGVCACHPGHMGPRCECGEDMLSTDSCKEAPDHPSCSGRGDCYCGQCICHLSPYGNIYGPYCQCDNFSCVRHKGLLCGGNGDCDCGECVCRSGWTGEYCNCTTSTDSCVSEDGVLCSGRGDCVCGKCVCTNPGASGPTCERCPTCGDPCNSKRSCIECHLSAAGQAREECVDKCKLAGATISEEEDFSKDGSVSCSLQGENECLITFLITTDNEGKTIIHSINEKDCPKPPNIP
T2 sequence (P06756 31-992 limits assumed, chain 1 of 2): as the sequence (P06756 31-992, chain 1 of 2) above
T2 sequence (P18084 24-719 limits assumed, chain 2 of 2): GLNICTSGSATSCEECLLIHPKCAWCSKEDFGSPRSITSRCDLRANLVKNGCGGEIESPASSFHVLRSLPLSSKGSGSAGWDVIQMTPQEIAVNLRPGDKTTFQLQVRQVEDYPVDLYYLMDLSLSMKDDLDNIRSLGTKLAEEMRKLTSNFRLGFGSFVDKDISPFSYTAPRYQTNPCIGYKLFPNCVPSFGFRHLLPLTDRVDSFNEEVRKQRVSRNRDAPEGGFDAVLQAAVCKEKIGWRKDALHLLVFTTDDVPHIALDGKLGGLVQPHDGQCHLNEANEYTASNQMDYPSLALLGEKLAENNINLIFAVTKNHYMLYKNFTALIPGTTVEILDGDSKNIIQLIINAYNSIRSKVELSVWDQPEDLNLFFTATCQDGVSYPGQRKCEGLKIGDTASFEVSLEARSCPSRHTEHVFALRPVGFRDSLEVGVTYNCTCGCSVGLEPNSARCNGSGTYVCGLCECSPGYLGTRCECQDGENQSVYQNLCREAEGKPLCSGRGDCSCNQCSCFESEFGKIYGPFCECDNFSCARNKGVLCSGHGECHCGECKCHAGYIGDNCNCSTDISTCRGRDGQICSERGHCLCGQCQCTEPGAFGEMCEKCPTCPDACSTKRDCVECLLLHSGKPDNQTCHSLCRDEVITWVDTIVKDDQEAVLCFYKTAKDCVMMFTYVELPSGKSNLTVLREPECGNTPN

binding result [1]: no binding | binding result [2]: no binding | binding result [3]: binds | binding result [4]: no binding (tested: 2.5 µg/ml) | binding result [5]: no binding (tested: 2.5 µg/ml) | binding result [6]: binds
B1: H4C8 RGD1 VH Fr3 E72 (antibody, IgG4, V domains shown)
VH: QVQLVQSGAEVKKPGASVKVSCKVSGYTLTRQSMHWVRQAPGKGLEWMGRINTETGEPTYAQKFQGRVTMTEDTSTDTAYMELSSLRSEDTAVYFCAIFYYGRDTWGQGTTVTVSS
VL: EIVMTQSPATLSVSPGERVTLSCKSSQSLLRRGDLATIHGNALAWYQQKPGQAPRLLIYWASTRETGVPARFSGSGSGTEFTLTISSLQSEDFAVYYCKQSYNLLSFGQGTKVEIKR

binding result [1]: no binding | binding result [2]: no binding | binding result [3]: binds | binding result [4]: no binding (tested: 2.5 µg/ml) | binding result [7]: binds | binding result [6]: binds
B2: H4C8 RGD3 VH Fr3 E72 IgG4 (antibody, V domains shown)
VH: B1 VH
VL: B1 VL with R31G, A36G, T37R, I38L, H39K, G40K
notes: IgG4

ED50 of the inhibition of αvβ8-mediated TGF-β activation (immobilized human αvβ8, TMLC GARP/L-TGF-β reporter cells) [8]: 0.14 µg/mL | binding result [4]: no binding (tested: 2.5 µg/ml) | binding result [9]: no binding | binding result [10]: no binding | binding result [11]: no binding | binding result [12]: no binding (tested: 1 µg/mL)
B3: HuC6D4 F12 IgG4 (antibody)
heavy: QIQLVQSGAEVKKPGASVKISCKASGYTFTKYSMHWVRQAPGQGLEWVARINTETGEPTFADDFRGRFTVTLDTSTSTAYLEIRSLRSDDTAVYFCAIFYYGRDTWGQGTTLTVSSASTKGPSVFPLAPCSRSTSESTAALGCLVKDYFPEPVTVSWNSGALTSGVHTFPAVLQSSGLYSLSSVVTVPSSSLGTKTYTCNVDHKPSNTKVDKRVESKYGPPCPPCPAPEFLGGPSVFLFPPKPKDTLMISRTPEVTCVVVDVSQEDPEVQFNWYVDGVEVHNAKTKPREEQFNSTYRVVSVLTVLHQDWLNGKEYKCKVSNKGLPSSIEKTISKAKGQPREPQVYTLPPSQEEMTKNQVSLTCLVKGFYPSDIAVEWESNGQPENNYKTTPPVLDSDGSFFLYSKLTVDKSRWQEGNVFSCSVMHEALHNHYTQKSLSLSPGK
VL: EIVMTQSPATLSVSPGERVTMSCKSSQSLLHSRSRKNYLAWYQQKPGQAPRLLIYWASTRESGVPARFSGSGSGTEFTLTISSVQSEDFAVYYCKQSYNLLSFGQGTVLEIKR
notes: also called HuF12

— US20260139057A1 (University of California, published 2026)
